From paper PMC5114850

Biological target: recombinant human calmodulin (human), P0DP23
Test: ITC
Conditions: remark: other sources report otherwise

B1: CaMBP1 peptide of zebrafish STRA6 (peptide)
peptide: Ac-SQSHPVMKAFCGLLLQSS-NH2
**Q.** Which results are given for B1?
**A.** Kd: 1680 nM; dH: -7.3 kcal/mol; stoichiometry N: 0.99 sites
